Here are results for two substances from PMC11119796.

In test [1] the target is endogenous PKM2 (A549 cells) (human (endogenous in A549)) (UniProt P14618). The experiment in a line: cross-linking; DSS 250 μM added to collected cells in PBS pH 8.0, 30 min at 37 °C, quenched with 10 mM Tris-HCl pH 7.5; lysis and Western blot of PKM2; 4T1 cells (control or Islr-deleted) and A549 cells (with or without stable ISLR, H2O2 at indicated dose for 30 min).
For test [2], the target named is endogenous Pkm2 (4T1 cells) (mouse (endogenous in 4T1)) (UniProt P52480). Described as above.

Values joined by “and” are separate entries in the source; they are usually repeats but may differ in a detail not shown here. Equal values may be shown once.

Chain of endogenous Pkm2 (4T1 cells), P52480 1-531 (enzyme; other documents disagree on this pair) (P52480 whole entry): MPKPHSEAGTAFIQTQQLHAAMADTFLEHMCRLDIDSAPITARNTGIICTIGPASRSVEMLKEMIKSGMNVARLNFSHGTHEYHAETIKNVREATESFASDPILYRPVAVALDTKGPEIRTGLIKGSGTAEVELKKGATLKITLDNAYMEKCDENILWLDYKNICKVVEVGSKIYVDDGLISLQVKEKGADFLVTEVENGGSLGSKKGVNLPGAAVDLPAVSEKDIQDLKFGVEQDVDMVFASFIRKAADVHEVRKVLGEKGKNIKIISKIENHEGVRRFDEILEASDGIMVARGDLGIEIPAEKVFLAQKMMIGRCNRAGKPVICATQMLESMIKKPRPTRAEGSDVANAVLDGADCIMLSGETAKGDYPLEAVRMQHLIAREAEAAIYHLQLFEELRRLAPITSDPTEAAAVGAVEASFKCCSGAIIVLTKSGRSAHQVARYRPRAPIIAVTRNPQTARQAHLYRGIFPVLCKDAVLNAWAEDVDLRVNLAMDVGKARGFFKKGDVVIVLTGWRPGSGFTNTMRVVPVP
Chain of endogenous PKM2 (A549 cells), P14618 1-531 (enzyme; other documents disagree on this pair) (P14618 whole entry): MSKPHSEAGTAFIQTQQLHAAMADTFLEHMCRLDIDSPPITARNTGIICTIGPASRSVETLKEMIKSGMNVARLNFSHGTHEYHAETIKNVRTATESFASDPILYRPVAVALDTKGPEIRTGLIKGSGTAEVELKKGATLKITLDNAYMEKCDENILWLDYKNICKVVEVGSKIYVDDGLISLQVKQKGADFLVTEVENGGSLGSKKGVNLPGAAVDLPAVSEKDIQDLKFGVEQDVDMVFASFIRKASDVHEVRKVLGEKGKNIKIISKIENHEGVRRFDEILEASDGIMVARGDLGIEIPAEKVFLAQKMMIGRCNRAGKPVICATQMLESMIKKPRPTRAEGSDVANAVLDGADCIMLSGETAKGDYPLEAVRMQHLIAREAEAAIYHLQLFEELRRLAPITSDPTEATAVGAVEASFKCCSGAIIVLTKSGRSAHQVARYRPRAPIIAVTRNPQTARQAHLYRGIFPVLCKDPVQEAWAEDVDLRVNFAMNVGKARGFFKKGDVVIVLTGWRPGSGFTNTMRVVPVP

Consider “endogenous PKM2 (A549 cells), P14618 1-531 (enzyme; other documents disagree on this pair)”, for which, in test [1], the stoichiometry N (commonly the number of molecules, sites or subunits per partner or assembly) came to 2.

Regarding “endogenous Pkm2 (4T1 cells), P52480 1-531 (enzyme; other documents disagree on this pair)”, the stoichiometry N in test [2] is 2 and 4.
